Measurements: patent publication US9981005

Molecular target: Skp1-FBXW7 complex (human FBXW7 residues 263-707 with truncated Skp1) (human) (UniProt P63208)
Experiment: isothermal titration calorimetry, Skp1-FBXW7, 25 °C

Chain of Skp1-FBXW7 complex (human FBXW7 residues 263-707 with truncated Skp1) (human) (chain, as listed by the source limits assumed, chain 1 of 2): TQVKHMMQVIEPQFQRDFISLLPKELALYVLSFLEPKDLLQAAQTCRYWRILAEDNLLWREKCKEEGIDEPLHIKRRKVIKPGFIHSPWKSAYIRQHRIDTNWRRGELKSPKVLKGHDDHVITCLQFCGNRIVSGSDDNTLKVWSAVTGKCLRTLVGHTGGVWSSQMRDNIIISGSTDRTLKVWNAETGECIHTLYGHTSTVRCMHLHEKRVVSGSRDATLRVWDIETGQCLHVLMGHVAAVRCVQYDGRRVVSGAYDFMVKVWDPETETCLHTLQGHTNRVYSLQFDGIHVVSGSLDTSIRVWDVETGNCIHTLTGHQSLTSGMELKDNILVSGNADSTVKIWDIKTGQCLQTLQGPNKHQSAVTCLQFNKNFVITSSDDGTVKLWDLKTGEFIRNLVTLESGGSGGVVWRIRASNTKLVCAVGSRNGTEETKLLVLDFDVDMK
Chain of Skp1-FBXW7 complex (human FBXW7 residues 263-707 with truncated Skp1) (human) (P63208 whole entry, chain 2 of 2, the tested form may be a part): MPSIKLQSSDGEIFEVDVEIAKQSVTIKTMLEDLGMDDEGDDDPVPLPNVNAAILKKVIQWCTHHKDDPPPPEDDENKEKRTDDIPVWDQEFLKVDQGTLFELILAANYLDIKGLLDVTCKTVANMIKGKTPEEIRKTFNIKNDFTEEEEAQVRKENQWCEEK

Kd: 1000 nM
Substance: doubly-phosphorylated test peptide VPPpTPPGpSH
